Laboratory results published in publication PMC9482650, “Quantitative fragmentomics allow affinity mapping of interactomes” (Nature Communications, 2022).

T1: APBA2_2, Q99767
T1 sequence (Q99767 654-744, limits assumed, looked up): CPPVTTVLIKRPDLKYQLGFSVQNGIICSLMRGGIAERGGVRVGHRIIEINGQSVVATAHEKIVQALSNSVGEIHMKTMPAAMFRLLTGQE

T2: CARD11, Q9BXL7
T2 sequence (Q9BXL7 662-765, limits assumed, looked up): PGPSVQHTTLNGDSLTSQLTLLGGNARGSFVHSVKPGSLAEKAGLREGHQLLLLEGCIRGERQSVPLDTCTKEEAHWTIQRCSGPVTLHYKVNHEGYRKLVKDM

T3: DFNB31_2, Q9P202
T3 sequence (Q9P202 274-371, limits assumed, looked up): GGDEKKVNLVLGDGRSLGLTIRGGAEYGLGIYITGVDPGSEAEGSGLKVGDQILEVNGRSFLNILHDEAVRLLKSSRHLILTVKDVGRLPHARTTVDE

T4: DLG3_2, Q92796
T4 sequence (Q92796 221-321, limits assumed, looked up): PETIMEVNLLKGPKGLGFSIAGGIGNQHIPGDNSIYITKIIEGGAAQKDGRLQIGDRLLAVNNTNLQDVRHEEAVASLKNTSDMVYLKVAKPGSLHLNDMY

T5: DLG3_3, Q92796
T5 sequence (Q92796 374-475, limits assumed, looked up): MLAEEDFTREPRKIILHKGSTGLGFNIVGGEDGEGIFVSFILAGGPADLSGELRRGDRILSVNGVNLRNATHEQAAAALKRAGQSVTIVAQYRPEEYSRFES

T6: LNX2_2, Q8N448
T6 sequence (Q8N448 334-432, limits assumed, looked up): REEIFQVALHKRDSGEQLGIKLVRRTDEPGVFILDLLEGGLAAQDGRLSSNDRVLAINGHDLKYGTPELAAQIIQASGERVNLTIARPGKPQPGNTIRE

T7: MPDZ_12, O75970
T7 sequence (O75970 1857-1958, limits assumed, looked up): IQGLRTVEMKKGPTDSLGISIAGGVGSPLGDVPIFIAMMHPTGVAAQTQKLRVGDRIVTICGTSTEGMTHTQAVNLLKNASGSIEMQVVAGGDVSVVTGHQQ

T8: MPP2, Q14168
T8 sequence (Q14168 180-250, limits assumed, looked up): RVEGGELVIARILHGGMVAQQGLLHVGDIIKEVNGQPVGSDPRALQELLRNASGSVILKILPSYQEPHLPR

T9: PDZD7_3, Q9H5P4
T9 sequence (Q9H5P4 857-944, limits assumed, looked up): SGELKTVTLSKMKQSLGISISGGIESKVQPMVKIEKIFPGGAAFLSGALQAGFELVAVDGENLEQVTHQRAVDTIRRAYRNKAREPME

T10: SHANK1, Q9Y566
T10 sequence (Q9Y566 658-767, limits assumed, looked up): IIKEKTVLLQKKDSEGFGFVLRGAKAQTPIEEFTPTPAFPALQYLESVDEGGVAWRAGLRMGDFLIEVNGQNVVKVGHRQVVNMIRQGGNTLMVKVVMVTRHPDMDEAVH

T11: TJP3_3, O95049
T11 sequence (O95049 375-456, limits assumed, looked up): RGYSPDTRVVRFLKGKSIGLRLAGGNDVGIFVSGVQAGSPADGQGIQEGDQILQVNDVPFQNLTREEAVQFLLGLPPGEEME


What was measured:
Test in all cases: holdup assay
Parameters in all cases: key: below the threshold = too weak to quantify, mostly under pKd 3.1 to 4
Settings in all cases: plain residues with an end cap or a label only (N-terminal biotin on a linker: ado-ado)
APBA2_2, Q99767 = biological target: T1, APBA2_2, Q99767
CARD11, Q9BXL7 = biological target: T2, CARD11, Q9BXL7
CASK, O14936 = biological target: CASK, O14936
DFNB31_2, Q9P202 = biological target: T3, DFNB31_2, Q9P202
DLG3_2, Q92796 = biological target: T4, DLG3_2, Q92796
DLG3_3, Q92796 = biological target: T5, DLG3_3, Q92796
DLG4_1, P78352 = biological target: DLG4_1, P78352
FRMPD2_3, Q68DX3 = biological target: FRMPD2_3, Q68DX3
GRIP2_3, Q9C0E4 = biological target: GRIP2_3, Q9C0E4
GRIP2_4, Q9C0E4 = biological target: GRIP2_4, Q9C0E4
GRIP2_5, Q9C0E4 = biological target: GRIP2_5, Q9C0E4
GRIP2_6, Q9C0E4 = biological target: GRIP2_6, Q9C0E4
IL16_3, Q14005 = biological target: IL16_3, Q14005
Inadl_1, Q8NI35 = biological target: Inadl_1, Q8NI35
Inadl_8, Q8NI35 = biological target: Inadl_8, Q8NI35
LDB3, O75112 = biological target: LDB3, O75112
LIMK2, P53671 = biological target: LIMK2, P53671
LNX2_2, Q8N448 = biological target: T6, LNX2_2, Q8N448
MAGI2_4, Q86UL8 = biological target: MAGI2_4, Q86UL8
MAGI2_6, Q86UL8 = biological target: MAGI2_6, Q86UL8
MAGI3_2, Q5TCQ9 = biological target: MAGI3_2, Q5TCQ9
MPDZ_12, O75970 = biological target: T7, MPDZ_12, O75970
MPP2, Q14168 = biological target: T8, MPP2, Q14168
PDZD7_3, Q9H5P4 = biological target: T9, PDZD7_3, Q9H5P4
PTPN3, P26045 = biological target: PTPN3, P26045
SHANK1, Q9Y566 = biological target: T10, SHANK1, Q9Y566
TJP1_3, Q07157 = biological target: TJP1_3, Q07157
TJP3_3, O95049 = biological target: T11, TJP3_3, O95049

Sequence of CASK, O14936 (O14936 487-570): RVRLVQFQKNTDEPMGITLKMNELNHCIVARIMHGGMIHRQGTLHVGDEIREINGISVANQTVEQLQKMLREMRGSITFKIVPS
Sequence of GRIP2_5, Q9C0E4 (Q9C0E4 544-642): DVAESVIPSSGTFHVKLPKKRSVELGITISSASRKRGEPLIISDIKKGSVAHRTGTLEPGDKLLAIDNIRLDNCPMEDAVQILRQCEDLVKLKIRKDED
Sequence of TJP1_3, Q07157 (Q07157 416-512): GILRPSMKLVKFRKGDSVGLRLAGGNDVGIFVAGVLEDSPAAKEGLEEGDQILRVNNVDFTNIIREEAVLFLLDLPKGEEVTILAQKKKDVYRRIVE
Sequence of GRIP2_4, Q9C0E4 (Q9C0E4 446-548): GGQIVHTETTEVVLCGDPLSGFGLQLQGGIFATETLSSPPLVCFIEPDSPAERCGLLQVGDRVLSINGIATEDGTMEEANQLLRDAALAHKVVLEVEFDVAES
Sequence of GRIP2_3, Q9C0E4 (Q9C0E4 238-339): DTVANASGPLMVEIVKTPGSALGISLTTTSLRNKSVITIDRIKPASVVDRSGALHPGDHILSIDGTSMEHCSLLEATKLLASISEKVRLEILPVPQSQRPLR
Sequence of IL16_3, Q14005 (Q14005 1107-1207): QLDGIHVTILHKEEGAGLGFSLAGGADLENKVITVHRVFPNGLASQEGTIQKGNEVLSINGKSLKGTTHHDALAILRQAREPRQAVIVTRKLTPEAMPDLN
Sequence of LDB3, O75112 (O75112 1-94): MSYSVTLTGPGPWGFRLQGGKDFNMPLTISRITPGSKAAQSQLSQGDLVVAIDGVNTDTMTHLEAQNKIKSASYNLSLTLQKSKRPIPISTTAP
Sequence of MAGI2_6, Q86UL8 (Q86UL8 1141-1229): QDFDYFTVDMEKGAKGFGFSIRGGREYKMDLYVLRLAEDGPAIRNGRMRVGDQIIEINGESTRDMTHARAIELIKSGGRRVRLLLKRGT
Sequence of LIMK2, P53671 (P53671 143-248): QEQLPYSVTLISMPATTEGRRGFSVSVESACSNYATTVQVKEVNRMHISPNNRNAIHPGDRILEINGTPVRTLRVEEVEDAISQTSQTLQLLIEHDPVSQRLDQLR
Sequence of DLG4_1, P78352 (P78352 62-152): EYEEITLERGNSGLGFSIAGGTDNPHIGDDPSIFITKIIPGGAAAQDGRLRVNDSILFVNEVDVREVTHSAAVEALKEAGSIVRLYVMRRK
Sequence of PTPN3, P26045 (P26045 505-587): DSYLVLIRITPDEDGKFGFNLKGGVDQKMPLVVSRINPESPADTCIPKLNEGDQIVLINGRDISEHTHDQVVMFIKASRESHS
Sequence of GRIP2_6, Q9C0E4 (Q9C0E4 648-740): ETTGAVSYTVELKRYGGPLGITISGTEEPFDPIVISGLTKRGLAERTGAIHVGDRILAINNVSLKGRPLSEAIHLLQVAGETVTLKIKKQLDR
Sequence of FRMPD2_3, Q68DX3 (Q68DX3 1073-1166): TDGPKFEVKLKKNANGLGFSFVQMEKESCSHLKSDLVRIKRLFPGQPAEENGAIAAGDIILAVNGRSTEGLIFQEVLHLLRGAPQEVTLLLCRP
Sequence of MAGI3_2, Q5TCQ9 (Q5TCQ9 398-503): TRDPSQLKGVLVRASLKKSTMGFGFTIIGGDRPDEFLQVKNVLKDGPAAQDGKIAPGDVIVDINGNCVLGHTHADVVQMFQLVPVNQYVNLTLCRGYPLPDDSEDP
Sequence of Inadl_8, Q8NI35 (Q8NI35 1425-1530): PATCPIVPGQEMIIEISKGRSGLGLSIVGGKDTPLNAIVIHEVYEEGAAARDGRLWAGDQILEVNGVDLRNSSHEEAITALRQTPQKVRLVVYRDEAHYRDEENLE
Sequence of MAGI2_4, Q86UL8 (Q86UL8 772-865): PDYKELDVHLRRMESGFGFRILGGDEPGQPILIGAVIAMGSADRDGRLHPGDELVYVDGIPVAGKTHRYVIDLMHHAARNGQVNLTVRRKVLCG
Sequence of Inadl_1, Q8NI35 (Q8NI35 113-229): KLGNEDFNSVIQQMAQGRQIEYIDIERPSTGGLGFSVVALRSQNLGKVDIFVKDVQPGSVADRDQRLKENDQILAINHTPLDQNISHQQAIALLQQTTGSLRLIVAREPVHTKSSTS

Row | Binder | pKd (APBA2_2, Q99767) | pKd (CARD11, Q9BXL7) | pKd (CASK, O14936) | pKd (DFNB31_2, Q9P202) | pKd (DLG3_2, Q92796) | pKd (DLG3_3, Q92796) | pKd (DLG4_1, P78352) | pKd (FRMPD2_3, Q68DX3) | pKd (GRIP2_3, Q9C0E4) | pKd (GRIP2_4, Q9C0E4) | pKd (GRIP2_5, Q9C0E4) | pKd (GRIP2_6, Q9C0E4) | pKd (IL16_3, Q14005) | pKd (Inadl_1, Q8NI35) | pKd (Inadl_8, Q8NI35) | pKd (LDB3, O75112) | pKd (LIMK2, P53671) | pKd (LNX2_2, Q8N448) | pKd (MAGI2_4, Q86UL8) | pKd (MAGI2_6, Q86UL8) | other results
1 | EALLQMESVA [CAVIN3, Q969G5] | 3.61 | below the threshold | below the threshold | below the threshold | 4.21 | below the threshold | below the threshold | below the threshold | below the threshold | below the threshold | below the threshold | below the threshold | below the threshold | below the threshold | below the threshold | below the threshold | below the threshold | below the threshold | below the threshold | below the threshold | pKd (MAGI3_2, Q5TCQ9): below the threshold; pKd (MPDZ_12, O75970): below the threshold; pKd (MPP2, Q14168): below the threshold; pKd (PDZD7_3, Q9H5P4): below the threshold; pKd (PTPN3, P26045): below the threshold; pKd (SHANK1, Q9Y566): below the threshold; pKd (TJP1_3, Q07157): below the threshold; pKd (TJP3_3, O95049): below the threshold
2 | PRAEAEDSFL [PDGFRB, P09619] | below the threshold | below the threshold | below the threshold | below the threshold | below the threshold | below the threshold | 3.72 | 3.51 | below the threshold | below the threshold | below the threshold | below the threshold | 3.5 | below the threshold | below the threshold | 3.67 | below the threshold | 3.54 | 3.6 | 4.26 | pKd (MAGI3_2, Q5TCQ9): below the threshold; pKd (MPDZ_12, O75970): below the threshold; pKd (MPP2, Q14168): below the threshold; pKd (PDZD7_3, Q9H5P4): 3.56; pKd (PTPN3, P26045): 4.45; pKd (SHANK1, Q9Y566): 3.51; pKd (TJP1_3, Q07157): below the threshold; pKd (TJP3_3, O95049): 3.49
3 | EKKTLIGIKL [GOT1L1, Q8NHS2] | below the threshold | below the threshold | below the threshold | below the threshold | below the threshold | below the threshold | below the threshold | below the threshold | below the threshold | below the threshold | below the threshold | below the threshold | below the threshold | below the threshold | below the threshold | below the threshold | below the threshold | below the threshold | below the threshold | below the threshold | pKd (MAGI3_2, Q5TCQ9): below the threshold; pKd (MPDZ_12, O75970): below the threshold; pKd (MPP2, Q14168): below the threshold; pKd (PDZD7_3, Q9H5P4): below the threshold; pKd (PTPN3, P26045): below the threshold; pKd (SHANK1, Q9Y566): below the threshold; pKd (TJP1_3, Q07157): below the threshold; pKd (TJP3_3, O95049): below the threshold
